{"source": "paper PMC10397247", "key": {"4H3961-bA": {"biological_target": "T1, 4H3961-bA", "T1 chain": "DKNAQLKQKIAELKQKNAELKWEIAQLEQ", "assay": "two-hybrid library CCNG1;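 further: natural log of median RNA to DNA barcode read ratio; higher means stronger binding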"}, "4H4038-bA": {"biological_target": "T2, 4H4038-bA", "T2 chain": "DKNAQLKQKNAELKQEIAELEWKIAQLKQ", "assay": "two-hybrid library CCNG1"}, "4H1193-bA": {"biological_target": "T3, 4H1193-bA", "T3 chain": "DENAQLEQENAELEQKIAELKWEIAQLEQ", "assay": "two-hybrid library CCNG1"}, "4H1387-bA": {"biological_target": "T4, 4H1387-bA", "T4 chain": "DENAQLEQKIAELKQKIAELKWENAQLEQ", "assay": "two-hybrid library CCNG1"}, "4H2619-bA": {"biological_target": "T5, 4H2619-bA", "T5 chain": "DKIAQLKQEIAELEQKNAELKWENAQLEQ", "assay": "two-hybrid library CCNG1"}, "4H3601-bA": {"biological_target": "T6, 4H3601-bA", "T6 chain": "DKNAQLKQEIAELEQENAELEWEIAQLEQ", "assay": "two-hybrid library CCNG1"}, "4H470-bA": {"biological_target": "T7, 4H470-bA", "T7 chain": "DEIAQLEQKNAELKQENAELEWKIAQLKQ", "assay": "two-hybrid library CCNG1"}, "4H3592-bA": {"biological_target": "T8, 4H3592-bA", "T8 chain": "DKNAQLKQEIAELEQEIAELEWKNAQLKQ", "assay": "two-hybrid library CCNG1"}, "4H1072-bA": {"biological_target": "T9, 4H1072-bA", "T9 chain": "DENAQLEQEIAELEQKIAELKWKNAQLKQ", "assay": "two-hybrid library CCNG1"}, "4H3907-bA": {"biological_target": "T10, 4H3907-bA", "T10 chain": "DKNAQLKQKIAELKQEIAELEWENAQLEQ", "assay": "two-hybrid library CCNG1"}, "4H2568-bA": {"biological_target": "T11, 4H2568-bA", "T11 chain": "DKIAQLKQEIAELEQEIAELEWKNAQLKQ", "assay": "two-hybrid library CCNG1"}, "4H2745-bA": {"biological_target": "T12, 4H2745-bA", "T12 chain": "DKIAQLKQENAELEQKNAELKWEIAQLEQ", "assay": "two-hybrid library CCNG1"}, "4H363-bA": {"biological_target": "T13, 4H363-bA", "T13 chain": "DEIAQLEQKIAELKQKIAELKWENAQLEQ", "assay": "two-hybrid library CCNG1"}, "4H1406-bA": {"biological_target": "T14, 4H1406-bA", "T14 chain": "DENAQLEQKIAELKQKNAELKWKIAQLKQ", "assay": "two-hybrid library CCNG1"}, "4H344-bA": {"biological_target": "T15, 4H344-bA", "T15 chain": "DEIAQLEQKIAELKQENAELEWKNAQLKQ", "assay": "two-hybrid library CCNG1"}, "4H3427-AA": {"biological_target": "T16, 4H3427-AA", "T16 chain": "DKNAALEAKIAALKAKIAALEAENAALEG", "assay": "two-hybrid library CCmax", "conditions": "mean of both orientations"}, "4H953-AA": {"biological_target": "T17, 4H953-AA", "T17 chain": "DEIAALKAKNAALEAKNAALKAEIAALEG", "assay": "two-hybrid library CCmax", "conditions": "mean of both orientations"}, "4H3782-AA": {"biological_target": "T18, 4H3782-AA", "T18 chain": "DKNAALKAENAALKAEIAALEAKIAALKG", "assay": "two-hybrid library CCmax", "conditions": "mean of both orientations"}, "4H717-AA": {"biological_target": "T19, 4H717-AA", "T19 chain": "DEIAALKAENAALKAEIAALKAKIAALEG", "assay": "two-hybrid library CCmax", "conditions": "mean of both orientations"}, "4H1446-AA": {"biological_target": "T20, 4H1446-AA", "T20 chain": "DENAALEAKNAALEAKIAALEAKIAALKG", "assay": "two-hybrid library CCmax"}, "4H568-AA": {"biological_target": "T21, 4H568-AA", "T21 chain": "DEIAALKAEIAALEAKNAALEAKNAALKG", "assay": "two-hybrid library CCmax", "conditions": "mean of both orientations"}, "4H918-AA": {"biological_target": "T22, 4H918-AA", "T22 chain": "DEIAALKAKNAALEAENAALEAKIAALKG", "assay": "two-hybrid library CCmax", "conditions": "mean of both orientations"}, "4H883-AA": {"biological_target": "T23, 4H883-AA", "T23 chain": "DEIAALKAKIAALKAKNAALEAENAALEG", "assay": "two-hybrid library CCmax", "conditions": "mean of both orientations"}, "4H687-AA": {"biological_target": "T24, 4H687-AA", "T24 chain": "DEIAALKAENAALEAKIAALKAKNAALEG", "assay": "two-hybrid library CCmax", "conditions": "mean of both orientations"}, "4H2442-AA": {"biological_target": "T25, 4H2442-AA", "T25 chain": "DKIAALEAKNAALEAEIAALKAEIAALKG", "assay": "two-hybrid library CCmax", "conditions": "mean of both orientations"}, "4H4001-AA": {"biological_target": "T26, 4H4001-AA", "T26 chain": "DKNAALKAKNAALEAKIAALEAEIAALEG", "assay": "two-hybrid library CCmax", "conditions": "mean of both orientations"}, "4H1845-AA": {"biological_target": "T27, 4H1845-AA", "T27 chain": "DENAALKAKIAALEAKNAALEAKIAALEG", "assay": "two-hybrid library CCmax", "conditions": "mean of both orientations"}, "4H797-AA": {"biological_target": "T28, 4H797-AA", "T28 chain": "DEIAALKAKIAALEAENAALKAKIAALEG", "assay": "two-hybrid library CCmax", "conditions": "mean of both orientations"}, "4H967-AA": {"biological_target": "T29, 4H967-AA", "T29 chain": "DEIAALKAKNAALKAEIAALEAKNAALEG", "assay": "two-hybrid library CCmax", "conditions": "mean of both orientations"}, "4H3112-AA": {"biological_target": "T30, 4H3112-AA", "T30 chain": "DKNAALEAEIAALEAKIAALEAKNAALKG", "assay": "two-hybrid library CCmax", "conditions": "mean of both orientations"}, "4H3855-AA": {"biological_target": "T31, 4H3855-AA", "T31 chain": "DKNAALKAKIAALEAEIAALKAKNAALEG", "assay": "two-hybrid library CCmax", "conditions": "mean of both orientations"}, "4H3354-AA": {"biological_target": "T32, 4H3354-AA", "T32 chain": "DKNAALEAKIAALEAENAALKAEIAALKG", "assay": "two-hybrid library CCmax", "conditions": "mean of both orientations"}}}
{"binder": "DENAQLEQEIAELEQKIAELKWKNAQLKQ", "note": "[4H1072-bA]", "values": [{"measurement": "interaction score", "setting": "4H3961-bA", "result": 1.34}, {"measurement": "interaction score", "setting": "4H4038-bA", "result": 1.71}, {"measurement": "interaction score", "setting": "4H1193-bA", "result": 0.766}, {"measurement": "interaction score", "setting": "4H1387-bA", "result": 1.46}, {"measurement": "interaction score", "setting": "4H2619-bA", "result": 0.0458}, {"measurement": "interaction score", "setting": "4H3601-bA", "result": 0.34}, {"measurement": "interaction score", "setting": "4H470-bA", "result": -1.2}, {"measurement": "interaction score", "setting": "4H3592-bA", "result": 1.81}, {"measurement": "interaction score", "setting": "4H1072-bA", "result": 0.969}, {"measurement": "interaction score", "setting": "4H3907-bA", "result": 0.997}, {"measurement": "interaction score", "setting": "4H2568-bA", "result": 1.85}, {"measurement": "interaction score", "setting": "4H2745-bA", "result": -0.205}, {"measurement": "interaction score", "setting": "4H363-bA", "result": 1.21}, {"measurement": "interaction score", "setting": "4H1406-bA", "result": 0.239}, {"measurement": "interaction score", "setting": "4H344-bA", "result": -0.759}]}
{"binder": "DENAALEAKNAALEAKIAALEAKIAALKG", "note": "[4H1446-AA]", "values": [{"measurement": "interaction score", "setting": "4H3427-AA", "result": -0.719}, {"measurement": "interaction score", "setting": "4H953-AA", "result": -0.751}, {"measurement": "interaction score", "setting": "4H3782-AA", "result": 0.114}, {"measurement": "interaction score", "setting": "4H717-AA", "result": -1.15}, {"measurement": "interaction score", "setting": "4H1446-AA", "result": 0.267}, {"measurement": "interaction score", "setting": "4H568-AA", "result": -1.7}, {"measurement": "interaction score", "setting": "4H918-AA", "result": -1.53}, {"measurement": "interaction score", "setting": "4H883-AA", "result": -1.54}, {"measurement": "interaction score", "setting": "4H687-AA", "result": -1.79}, {"measurement": "interaction score", "setting": "4H2442-AA", "result": -1.19}, {"measurement": "interaction score", "setting": "4H4001-AA", "result": 2.23}, {"measurement": "interaction score", "setting": "4H1845-AA", "result": -1.25}, {"measurement": "interaction score", "setting": "4H797-AA", "result": -1.49}, {"measurement": "interaction score", "setting": "4H967-AA", "result": -1.1}, {"measurement": "interaction score", "setting": "4H3112-AA", "result": -0.365}, {"measurement": "interaction score", "setting": "4H3855-AA", "result": -0.445}, {"measurement": "interaction score", "setting": "4H3354-AA", "result": -1.43}]}
